Data taken from the nanobody polyreactivity screen of Harvey et al. (2022).

Assay: yeast display, Sf9 membrane polyspecificity reagent, FACS + sequencing; frameworks hold sequencing errors
In short: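 Galactose induction of a Saccharomyces cerevisiae BJ5465 synthetic nanobody display library ran 36–48 hours. The cells were then stained for 1 hour at 4 °C with 10% biotinylated, detergent-solubilized Sf9 membrane reagent, pulled down on streptavidin microbeads and FACS-sorted into low and high (top ~1%) gates on expression and reagent-binding fluorescence. Labels for polyreactivity follow the gate of origin.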

Row | Sequence | polyreactivity (PSR sort gate)
1 | QFQLVESRGGLVKAGGSLRLTCAASGSILYQNTMGWYRQATGKERELVAAISGSGSRTYYADSVKGRFTISRDNAKNTVYLQMNSLKPEDTAVYYCAASGYWPFRSGFGYWGQGTQVTVSS | high polyreactivity
2 | QFQLVESVGGLVQAGSRLRLSCAASGRTFIPYAMGWYRQAPGKERELVAAITSSGGLTYYADSVMGRFTISRDNAKNTVYLQMNSLKPEDTAVYYCNKYARGYDMDYWGHGTQVTVSS | high polyreactivity
3 | QFQLVYSGGGLVQAGGSLRLSCAASGRTYGIYAMVWYRQAPGKERDLVAAISSDASTSYADSLKGRFTISRDNAKITVYLQMNSLKPEDTAVYYCGADPGTYYEWGYVYWGQGTQVTVSS | low polyreactivity
4 | QGHLVESWGGLVQAGGSLRLSCAASGSIFKDNAMGWYRQAPGKERELVAAITWSGGSTYYADSVKGRFTSSRDNANNTVYLQMNSLKAEDTAVDRYKYDYWGQGTQVTVSS | low polyreactivity
5 | QGQLEESGGCLVQAGGSLRLSCAASGIIFYKNAMGWYRPAPGKERELVAAISGSGGRTYYADSVKGRFTISRDNAKNTVYLQMNSLKPEVTAVSYCAARQPYRHGYESWGQGTQVTVSS | high polyreactivity
6 | QGQLEESGGGLVQAGCSLRRSCAASGNIFLIYAMGWSRQAPGKEGELVAAISFSDDTTDYADSVKGRFTSSRDNAKNTAYIQMNSLKPEDTAVYYCAAELYYDVANTQYDYWGQGTQVTVSS | high polyreactivity
7 | QGQLEESGGGLVQAGGSLRLSCAASGFIIYDYDMGRYRQAPGKERELVAAITYSGGSTYYADSVKGRFTISRDNAKNTVYLQMNSLKPEDTAVYHCAAVKSRYAVAVDYYYWGQGTQVTVSS | low polyreactivity
8 | QGQLEESGGGLVQAGGSLRLSCAASGRIFRYNTMGWYRQAPGKERELVADITSSDSSTYYADSVKGRFTISRDNAKNTLYLQMNSLKPEDTEVYFCAARDSGYGWRYYYWGHGTQVTVSS | low polyreactivity
9 | QGQLEESGGGLVQAGGSLRLSCAASGRTFAFYTMGWYRQAPGKERELVAAITRGGSTYYADSVKGRFTISRDNAKNTVYVQMNSLKPEDTAVYYCAASTRYYSQQFDYWGQGTQVTVSS | high polyreactivity
10 | QGQLVESGEGLVQAGGSLRLRCAASGSIIRYYTMGGYRQAPGKERELVAAISWSGGSTYYADSVKGRFTISRDNANNTVYLQMNSLKPEETSVYYCNAVSFAYNPYSATYDYWGQGTQVTVSS | high polyreactivity
11 | QGQLVESGGALVQAGGSLRLSCAASGSTFVRNAMGWYRPAPRKERELVAAISNVGSTYYADSVKGRFTISRDNAKNTVYFQKNSLKPEDTAVYYCTKQLWYHKFNYWGQGTQVTVSS | low polyreactivity
12 | QGQLVESGGGLFQAGGSLRLSCAASGRIFRRYAMGWDIQAPGKERELVAAISRGGSTYYADSVKGRFTISRDNAKNTVYLQMNSLKPEDTAVYYCAAYSQSTSFGGYDSWGQGTQVTVSS | high polyreactivity
13 | QGQLVESGGGLGQAGGSLRLSCAASGSTVVLYAMGWYRQARGKERELVAAISGGATTTYADSVKGRFTISRDNAKNTVYLQMNSLKPEDTAVYYCAADFSTFVLSGAAMDYWGQGTQVTVSS | low polyreactivity
14 | QGQLVESGGGLGQEGCSLRLSCAASGNTFIINAMGWYRQARGNERELVAAITSGGSTNYADSVKGRFTISGDNAKNTVYLQMNSLKPEDTAVYDCAARTRLYYYKVRKYRMDYWGQGTQVTVSS | low polyreactivity
15 | QGQLVESGGGLVQAGASLSLTSDDYRTIVKTYAMGSYRPAPGKESEMVAAISWRGGSTYYADSVKGRITISRDNAKNTVYLQMNSMKPVDTAVYYCVAVRNFGTRTLWYRYGYWGQGSQVTVSS | high polyreactivity
16 | QGQLVESGGGLVQAGGCLRLSCAASGGTFDYNAMGWYRQAPGKERELVAAITSGASTYYADSVKGRFTISRDNAKNTVYLQMNSLKPQDTAVYYCAKGPTPGYDYWGQGTQVTVSS | low polyreactivity
17 | QGQLVESGGGLVQAGGRLRLSCAASGSIFRAYAMGWYRQAPGKERELVADISRSGGSTYYADSVKGRFTISRDNAKNTVYLQMNSLKPEDTAVYYCYAPVGWSVEARVSRGYEDQYDYWGQGSQVTVSS | low polyreactivity
18 | QGQLVESGGGLVQAGGRLRLTCAASGSIFAGNAMGWYRQAPGKERELVAAIRWSTGSTYYADSVKGRFTISRDNAKNTVYLQLNSLKPEDTAVYYCAATDTTFYGIVRYEYWGQGTQVTVSS | low polyreactivity
19 | QGQLVESGGGLVQAGGRLSLSCAASGFTFDNYAMGWYSQAPGKERELVAAITSGGSTNYADSVKGRFTISRDNAKNTVYLQMNSLKPEDTAVYYCNVERSIQAQVNAEYYYWGQGTQVSVSS | low polyreactivity
20 | QGQLVESGGGLVQAGGSLRLSCAASGFIFGTYAMGWYRQAPGKERELVAAITGSGGDTYYADSVKGRFTISRDNAKNTVYLQMNSLKPEDTAVYYCAAVRPPTPSRRREDYWGQGTQVTVSS | low polyreactivity
21 | QGQLVESGGGLVQAGGSLRLSCAASGFTFPGYAMGWYRQAPGNVRELVAAITGSGGRTYYADSVKGRFTISRDNAKNTVYLQMNSLKPEDTAVYYCLARSSYNWYDYWGQGTQVTVSS | high polyreactivity
22 | QGQLVESGGGLVQAGGSLRLSCAASGIIFILYTMGWYRQAPGKEREFVATISSGGGSTFYADSVKGRFTISRDNAKNTVYLQMNSLKPEDTAVYYCAAEQLYYCERYYIWGYYYWGQGTQVTVSS | low polyreactivity

Row | Sequence | polyreactivity (PSR sort gate)
23 | QGQLVESGGGLVQAGGSLRLSCAASGLTFGSYTMGWYRQAPGKERELVAAITSDGSTNYADSVKGRFTISRDNAKNTVYLQMNSLKPEDTAVYYCAATRVSYRQFKAIGYHYWGQGTQVTVSS | high polyreactivity
24 | QGQLVESGGGLVQAGGSLRLSCAASGRIFAGNAMGWYRQAPGKDRELVAAISKSGRSTYYADSVKGRFTISRDNAKNTVYLQMNSLKPEDTAVYYCAKLYYPVSDQYDYYYWGQGTQVTVSS | low polyreactivity
25 | QGQLVESGGGLVQAGGSLRLSCAASGRTFTDYAMGWYRQAPGKEWELVADISGSGGSTYYADSVKGRFTISRDNAKNTVYLQMNSLNPEDTAVYYCNAVGSRRDKFDYWGQGTQVTVSS | low polyreactivity
26 | QGQLVESGGGLVQAGGSLRLSCAASGSIFFGNAMGWYRQAPGKERELVAGITGGGSTYYADSVKGRFTISRDNAKNTVYLQMNSLKPEDTAVYYCNKKAYRKTGMDYWGQGTQVTVSS | low polyreactivity
27 | QGQLVESGGGLVQAGGSLRLSCAASGSIFIGNAMGWYRQAPGKERELVAAITGRGGRTYYADSVKGRFSISRDNAKNTVYLQMNSLKPVDTAVYDCNARSGSSYSGYYYWGQGTQVTVSS | high polyreactivity
28 | QGQLVESGGGLVQAGGSLRLSCAASGSIFRPYPMGWYRQAPGKERELVATISSTGITNYADSVKGRFTISRDNAKNTVYLQMNSLKPEDTADYYCSAGLWYSYDYWGQGTQVTVSS | high polyreactivity
29 | QGQLVESGGGLVQAGGSLRLSCAASGSIFWYYAMGGYRQAPGKERELVADITSTGGSTYYADSVKGRFTISRDNAKNTVYLQMNSLKPEDTAVYYCAGEASYHGYYSLGYWGQGTQVTVSS | high polyreactivity
30 | QGQLVESGGGLVQAGGSLRLSCAASGSTFDYYVMGWYRQAPRKERELVAAISSGDSTNYADSVKGRFTISRDNAKNTVYLQMNSLKPEDTAVSYCAAEYTVHYDYWGQGTQVTVSS | low polyreactivity
31 | QGQLVESGGGLVQAGGSLRLSCAASGSTFLHYAMGWYRQAPGKERELVAAISRRGGRTYYADSVKGRFTISRDNAKNTVYLQMNRLKPEDTAVYNCAVDGIRDGYWIFYYWGQGTQVTVSS | low polyreactivity
32 | QGQLVESGGGLVQAGGSLRLSCAASGSTFTYNAMGWYRQAPGKERELVASISSGTTTYYADSVKGRFTISRDNAKNTVYLQMNSLKPEDTAVYYCAVDSWSRVQGWLAHNYDYWGQGTQVTVSS | low polyreactivity
33 | QGQLVESGGGLVQAGGSLRLSCAATGFTFRYYAMGWYRHAPGKERELVATITRGGSTNYADSVKGRFTISRDNAKNTVYLQMNSLKPEDTAVYYCATGKNYWRGYEYWGQGTQVTVSS | low polyreactivity
34 | QGQLVESGGGLVQAGGSLRLSCAAYGSTFYLYPMGRYRQAPGKERELVASISLSGRSTYYADSVKGRFTISRDNAKNTVYLQMNRLKQEDTAVYYCAARRFAYYFQYLGGGYWGQGTQVTVSS | high polyreactivity
35 | QGQLVESGGGLVQAGGSLRLSCAPSGSTVWVNVMGCYSPARGKERELVAAIDSGGSTYYADSVKGRFTISRDKAKNTVYLQMISLKPEDTAVYYCNARVDTPSPYDYWGQGTQVTVSS | low polyreactivity
36 | QGQLVESGGGLVQAGGSLRLSSAASGSTFVYAMGWYRQAPGKERVLVASISWSDSSTYYADSVKGRFTISRDNAKNTVYLQMNSQKREDTAVYYGYADQGTRDSDYWGQGTQGTVSS | low polyreactivity
37 | QGQLVESGGGLVQAGGSRRLSCAASGFIYFNAMGWSRQAPGKEREMVASISYSGGSTYYADSVKGRFTISRDNAKNTVYLQMNSLKPEDTAVYYCAKAFIEPGYKYDSWGQGTQVTVSS | high polyreactivity
38 | QGQLVESGGGLVQEGGILHLTCAASGRIFCYYDMGWSRQEPGKERELVAAISRSGGSTYYADSVKGRFTISRDNAKNTVYLQMNSLKPEDTAVYYCAAEYYGFSWAGYYYWGQGTQVTVSS | high polyreactivity
39 | QGQLVESWGGLVQAGGSLRLSCAASGSTFCDYAMGWYRQAPGQERELVAAIDWSDGSTYYADSVKGRFTSSRDNAKNTGYLQMNSLKPEDTAVYYCAAEQWYGMYYWGQGTQVTVSS | high polyreactivity
40 | QGQLVETGGGLVQAGGSLRLSCAASGSTFSYYAMGWYRQAPGKEREWVAAISRRGGSTYYADSVKGRFTISRDNAKNTVYLQMISLKPEDTAVNYCAADDYYSSRIEYYNWGQGTQVTVSS | high polyreactivity
41 | QGQRVESGGGLGQAGGSLRISCAASGLTFHRYAMGWYRQAQGKETELVAAINYSGGRTYYADSVKGRFTISRDNAKYTVYFQMNSLKPEDTAVYYCNVARWGNIPVGEYDYWGQGTQVTVSS | high polyreactivity
42 | QGQRVESGGGLVQAGGSLLLSCAASGLTFAKYAMGWDRQAPGKERELVSTITWSGATTYYADSVKGRFTISRDYAKNTVYLQMNSLKPEDTAVYYCIADLPVYVDYIIGGYGYWGQGTQVTVSS | low polyreactivity
43 | QGQRVESGGGLVQAGGSLRLSCAASGFIFWDYDMVWYRQAPGKEREMVAAISDSGGDTYYADSVKGRFTISRDNSKNTVYLQMHSLKREDTAVIYCAADVELWVFRGQQFDYWGQGTQVTVSS | low polyreactivity
